Reference: paper PMC3200346, “A Highly Stable Plastidic-Type Ferredoxin-NADP(H) Reductase in the Pathogenic Bacterium Leptospira interrogans” (PLoS ONE, 2011)
Values belong to the molecule of their own block, whether it stands above or below them.

Legend:
LepFNR [1] = molecular target: T1, LepFNR (Leptospira interrogans, UniProt Q8EY89); test: UV-visible spectrum; FAD fluorescence (release with urea); format: binding; conditions: noncovalently bound prosthetic group, 50 mM Tris-HCl pH 8.0, 25 °C
T1 construct: gene LA_4327; recombinant in E. coli BL21(DE3)pLysS, thioredoxin fusion (pET32JO-LepFNR) cut off by thrombin; monomeric FAD flavoprotein
T1 sequence (Q8EY89 entry or part of it): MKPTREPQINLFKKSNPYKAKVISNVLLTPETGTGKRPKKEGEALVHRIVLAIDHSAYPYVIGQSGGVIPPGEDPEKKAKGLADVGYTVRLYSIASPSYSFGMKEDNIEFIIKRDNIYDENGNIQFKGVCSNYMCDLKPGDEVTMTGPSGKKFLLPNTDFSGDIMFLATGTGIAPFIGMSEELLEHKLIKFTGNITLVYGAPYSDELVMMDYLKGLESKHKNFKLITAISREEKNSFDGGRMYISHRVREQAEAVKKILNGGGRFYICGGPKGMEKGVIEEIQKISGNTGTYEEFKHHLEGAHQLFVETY

E. coli FNR [2] = molecular target: T2, E. coli FNR (Escherichia coli, UniProt P28861); test: UV-visible spectrum; format: binding; conditions: noncovalently bound prosthetic group
T2 construct: gene fpr; ferredoxin-NADP(H) reductase, not the FNR transcription regulator
T2 sequence (P28861 2-248): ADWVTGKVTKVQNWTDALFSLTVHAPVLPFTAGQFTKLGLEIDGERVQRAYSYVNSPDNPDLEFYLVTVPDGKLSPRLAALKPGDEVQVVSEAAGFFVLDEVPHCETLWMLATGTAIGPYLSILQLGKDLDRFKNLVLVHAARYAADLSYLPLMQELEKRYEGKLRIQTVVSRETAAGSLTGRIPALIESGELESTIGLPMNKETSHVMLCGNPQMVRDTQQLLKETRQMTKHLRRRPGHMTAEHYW

Pea leaf FNR = molecular target: T3, Pea leaf FNR (Lathyrus oleraceus, UniProt P10933); test: difference absorption spectroscopy; format: binding; conditions: read-out: K d ^NADP+ /
T3 construct: gene PETH; preparation of the assayed enzyme not described; monomeric FAD flavoprotein
T3 sequence (P10933 53-360): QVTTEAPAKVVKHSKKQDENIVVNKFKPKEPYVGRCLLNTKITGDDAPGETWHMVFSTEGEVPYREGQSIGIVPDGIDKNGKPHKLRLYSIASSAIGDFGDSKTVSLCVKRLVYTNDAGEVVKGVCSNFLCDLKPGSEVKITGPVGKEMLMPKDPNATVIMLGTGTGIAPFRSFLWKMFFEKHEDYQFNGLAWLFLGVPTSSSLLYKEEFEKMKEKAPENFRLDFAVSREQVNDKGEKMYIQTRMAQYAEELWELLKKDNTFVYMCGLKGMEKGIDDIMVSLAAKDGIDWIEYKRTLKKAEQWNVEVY
Source text: difference absorption spectroscopy on Pea leaf FNR

E. coli FNR [3] = molecular target: T2, E. coli FNR; test: difference absorption spectroscopy; format: binding; conditions: read-out: K d ^NADP+ /
Source text: difference absorption spectroscopy on E. coli FNR

LepFNR [4] = molecular target: T1, LepFNR; test: difference absorption spectroscopy titration; format: binding
Source text: difference absorption spectroscopy titration on LepFNR

[5] = tested on: NC(=O)C1=CN([C@@H]2O[C@H](COP(=O)(O)OP(=O)(O)OC[C@H]3O[C@@H](n4cnc5c(N)ncnc54)[C@H](OP(=O)(O)O)[C@@H]3O)[C@@H](O)[C@H]2O)C=CC1; test: purified protein; conditions: 1 mM potassium ferricyanide, NADPH regenerating system, 50 mM Tris-HCl pH 8.0, 30 °C
[6] = molecular target: Leptospira interrogans ferredoxin-NADP(H) reductase (L. interrogans)
[7] = molecular target: Leptospira interrogans ferredoxin-NADP(H) reductase (L. interrogans); remark: listed apart in the source
purified protein [8] = substrate: NC(=O)C1=CN([C@@H]2O[C@H](COP(=O)(O)OP(=O)(O)OC[C@H]3O[C@@H](n4cnc5c(N)ncnc54)[C@H](OP(=O)(O)O)[C@@H]3O)[C@@H](O)[C@H]2O)C=CC1; test: purified protein; format: biochemical, Escherichia coli; conditions: 1 mM potassium ferricyanide, NADPH regenerating system, 50 mM Tris-HCl pH 8.0, 30 °C
purified protein [9] = substrate: NC(=O)C1=CN([C@@H]2O[C@H](COP(=O)(O)OP(=O)(O)OC[C@H]3O[C@@H](n4cnc5c(N)ncnc54)[C@H](OP(=O)(O)O)[C@@H]3O)[C@@H](O)[C@H]2O)C=CC1; test: purified protein; format: biochemical, Lathyrus oleraceus; conditions: 1 mM potassium ferricyanide, NADPH regenerating system, 50 mM Tris-HCl pH 8.0, 30 °C

Molecule: Cc1cc2nc3c(=O)[nH]c(=O)nc-3n(C[C@H](O)[C@H](O)[C@H](O)COP(=O)(O)OP(=O)(O)OC[C@H]3O[C@@H](n4cnc5c(N)ncnc54)[C@H](O)[C@@H]3O)c2cc1C [FAD]
UV-visible spectrum; FAD fluorescence (release with urea) (LepFNR [1]): the prosthetic group remains bound to the enzyme
UV-visible spectrum (E. coli FNR [2]): spectra of the pea leaf FNR, E. coli FNR and LepFNR, all essentially in oxidized states

Molecule: NC(=O)c1ccc[n+]([C@@H]2O[C@H](COP(=O)(O)OP(=O)(O)OC[C@H]3O[C@@H](n4cnc5c(N)ncnc54)[C@H](OP(=O)(O)O)[C@@H]3O)[C@@H](O)[C@H]2O)c1 [NADP^+]
Kd (Pea leaf FNR): 11.3 ± 2.1 µM
Kd (E. coli FNR [3]): 7.6 ± 2.2 µM
Kd (LepFNR [4]): 13.2 ± 3.1 µM

Molecule: LepFNR (Leptospira interrogans serovar Lai str. 56601)
Km [5]: 14.5 ± 1.7 µM
kcat [5]: 258 ± 13.7 s⁻¹
kcat/Km [5]: 1.78e+07 M⁻¹ s⁻¹

NADPH-cytochrome c reductase activity of LepFNR with LB107 ferredoxin under anaerobic conditions at different pH values; maximal specific activity at pH 6.5, lower at higher pH [6]: 6.13 µmol/min/mg
Molecule: Leptospira interrogans LB107 [4Fe-4S] ferredoxin (natural protein)

Molecule: Pisum sativum leaf ferredoxin (from UniProt P09911 53-149) (natural protein)
NADPH-cytochrome c reductase activity of LepFNR with P. sativum leaf ferredoxin; the reaction was linear with pea leaf ferredoxin up to 70 µM, no kinetic parameters determined [7]: 2.5 s⁻¹

B1: E. coli FNR (Escherichia coli K-12) (protein)
chain: ADWVTGKVTKVQNWTDALFSLTVHAPVLPFTAGQFTKLGLEIDGERVQRAYSYVNSPDNPDLEFYLVTVPDGKLSPRLAALKPGDEVQVVSEAAGFFVLDEVPHCETLWMLATGTAIGPYLSILQLGKDLDRFKNLVLVHAARYAADLSYLPLMQELEKRYEGKLRIQTVVSRETAAGSLTGRIPALIESGELESTIGLPMNKETSHVMLCGNPQMVRDTQQLLKETRQMTKHLRRRPGHMTAEHYW
notes: ferredoxin-NADP(H) reductase, not the FNR transcription regulator
Km (purified protein [8]): 8.3 ± 0.5 µM
kcat (purified protein [8]): 38.2 ± 2.3 s⁻¹
kcat/Km (purified protein [8]): 5e+06 M⁻¹ s⁻¹

B2: Pea leaf FNR (Lathyrus oleraceus) (protein)
chain: QVTTEAPAKVVKHSKKQDENIVVNKFKPKEPYVGRCLLNTKITGDDAPGETWHMVFSTEGEVPYREGQSIGIVPDGIDKNGKPHKLRLYSIASSAIGDFGDSKTVSLCVKRLVYTNDAGEVVKGVCSNFLCDLKPGSEVKITGPVGKEMLMPKDPNATVIMLGTGTGIAPFRSFLWKMFFEKHEDYQFNGLAWLFLGVPTSSSLLYKEEFEKMKEKAPENFRLDFAVSREQVNDKGEKMYIQTRMAQYAEELWELLKKDNTFVYMCGLKGMEKGIDDIMVSLAAKDGIDWIEYKRTLKKAEQWNVEVY
notes: preparation of the assayed enzyme not described; monomeric FAD flavoprotein
Km (purified protein [9]): 15.0 ± 1.6 µM
kcat (purified protein [9]): 325 ± 16.5 s⁻¹
kcat/Km (purified protein [9]): 2.17e+07 M⁻¹ s⁻¹
